In publication PMC2491553, “P68 RNA Helicase (DDX5) Alters Activity of Cis- and Trans-Acting Factors of the Alternative Splicing of H-Ras”:

How the values were obtained:
GST-FUS (FUS/TLS) = GST-FUS (FUS/TLS) (UniProt P35637 1-526); experiment: EMSA; GST-FUS; Crosslinking: 1x Roeder D buffer, 1 mM ATP, 1.7 mM MgCl2, 0.1 uM heparin, 30 min 30 C; EMSA: 1 pmol 32P-RNA, native 6-8% PAGE, buffer details not in material; conditions: protein: recombinant; tags: GST; label: 32P
GST-hnRNP H (GST-H) = molecular target: T1, GST-hnRNP H (GST-H) (UniProt P31943 1-449); experiment: EMSA; 100-400 ng GST-H; Crosslinking: 1x Roeder D buffer, 1 mM ATP, 1.7 mM MgCl2, 0.1 uM heparin, 30 min 30 C; EMSA: 1 pmol 32P-RNA, native 6-8% PAGE, buffer details not in material; conditions: protein: recombinant; tags: GST; label: 32P
T1 sequence: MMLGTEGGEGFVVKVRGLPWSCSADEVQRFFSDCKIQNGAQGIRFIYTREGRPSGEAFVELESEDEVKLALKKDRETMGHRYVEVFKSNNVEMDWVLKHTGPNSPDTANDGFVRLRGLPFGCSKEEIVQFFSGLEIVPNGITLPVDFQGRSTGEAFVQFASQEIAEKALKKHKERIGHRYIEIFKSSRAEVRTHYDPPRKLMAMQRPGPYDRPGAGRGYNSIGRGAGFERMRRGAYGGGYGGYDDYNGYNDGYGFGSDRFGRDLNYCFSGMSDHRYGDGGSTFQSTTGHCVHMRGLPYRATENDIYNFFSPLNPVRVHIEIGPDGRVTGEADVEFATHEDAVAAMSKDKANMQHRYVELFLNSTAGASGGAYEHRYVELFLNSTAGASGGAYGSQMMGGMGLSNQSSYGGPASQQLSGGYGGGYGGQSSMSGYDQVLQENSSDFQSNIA

Chain of GST-FUS (FUS/TLS) (P35637 whole entry): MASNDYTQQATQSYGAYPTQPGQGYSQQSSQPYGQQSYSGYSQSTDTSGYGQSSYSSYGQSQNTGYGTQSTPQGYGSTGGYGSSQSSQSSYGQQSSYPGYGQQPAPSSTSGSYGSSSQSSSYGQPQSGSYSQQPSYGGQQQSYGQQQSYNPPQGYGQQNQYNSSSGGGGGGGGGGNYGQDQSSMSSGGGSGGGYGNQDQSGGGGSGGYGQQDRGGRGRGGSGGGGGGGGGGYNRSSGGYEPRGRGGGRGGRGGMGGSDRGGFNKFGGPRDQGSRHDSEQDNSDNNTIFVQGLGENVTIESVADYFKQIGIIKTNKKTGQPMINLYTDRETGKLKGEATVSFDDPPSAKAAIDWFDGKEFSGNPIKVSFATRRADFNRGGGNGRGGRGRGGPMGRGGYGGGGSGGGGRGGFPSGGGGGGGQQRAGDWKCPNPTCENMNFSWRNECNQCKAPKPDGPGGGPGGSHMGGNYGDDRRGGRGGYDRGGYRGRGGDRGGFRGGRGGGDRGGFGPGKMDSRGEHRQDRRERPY

GGGACGGCAGGGCGUGAGGGAGGCGAGGGCCGGGGUCUGGGCUCACGCCC (ssRNA) [rasISS1]
binding result (GST-FUS (FUS/TLS)): no binding
binding result (GST-hnRNP H (GST-H)): binds

GGGACGCCGGGGUCUGGGCUCACGCCC (ssRNA) [ΔrasISS1]
binding result (GST-hnRNP H (GST-H)): no binding
